{"source": "patent US20210269548A1", "about": "(Kyowa Kirin, published 2021)", "binders": {"B1": {"name": "pCANTAB_CSPG5168 phage clone (scFv, V domains shown)", "VH": "EVQLVETGGALVQPGGSLRLSCAGSGFIFSKYEMTWVRQAPGKGLEWVSTIGSLGLKTFYTDSVKGRFTTSRDNSRDTLFLQMDNLRVEDTAIYFCVKGGIRRADYWGKGTLVTVSS", "VL": "EIVMTQSPATLSLSPGERATLSCRASQSVSSYLAWYQQKPGQAPRLLIYDASNRATGIPARFSGSGSGTDFTLTISSLEPEDFAVYYCQQRSNWPLTFGGGTKVEIK", "notes": "also called CSPG5168 scFv on phage"}, "B2": {"name": "pCANTAB_CSPG5120 phage clone (scFv, V domains shown)", "VH": "EVQLVQSGGGLVQPGGSLRLSCAASGFTFSNYWMTWVRQAPGEGPEWVANINQDGSQKYYVDSVKGRFTISRDNAKNSLNLQMNNLRAEDTALYYCAKSNAMDVWGQGTLVTVSS", "VL": "DIVMTQSPLSLPVTPGEPASISCRSSESLLHSNGYNYLNWYLQKPGQSPQLLIYLGSHRASGVPDRLSGSGSDTDFTLKISRVEAEDVGIYYCMQGRQTPITFGGGTKLEIK", "notes": "also called CSPG5120 scFv on phage"}, "B3": {"name": "pCANTAB_CSPG5115 phage clone (scFv, V domains shown)", "VH": "EVQLVQSGAEVKKPGASLKVSCKASGYSFTDYIIHWVRQAPGQSLEWMGWINGGSGVPKYSDKFQGRVTITRDTSANTAYMEIRSLGSEDTAVYYCARGGVCSGDKCYYYGMDVWGQGTTVTVSS", "VL": "QSVLTQPPSVSVSPGQTASITCSGDKLGDKYSWWYQQKPGQSPLLVIHQDNKRPSGIPERFSGSNSGNTATLTIVGTQAMDEADYYCQAWDRGVVFGGGTKLTVL", "notes": "also called CSPG5115 scFv on phage"}, "B4": {"name": "pCANTAB_CSPG5219 phage clone (scFv, V domains shown)", "VH": "not shown", "VL": "EIVLTQSPGTLSLSPGERATLSCRASQSVSSSYLAWYQQKPGQAPRLLIYGASSRATGIPDRFSGSGSGTDFTLTISRLEPEDFAVYYCQQLRRKGSTFGQGSKVEIK", "notes": "also called CSPG5219 scFv on phage"}, "B5": {"name": "pCANTAB_CSPG5206 phage clone (scFv, V domains shown)", "VH": "not shown", "VL": "QSALTQPASVSGSPGQSITISCTGTSTDVNGYNYVSWYQQYAGKAPKLIIFDVSKRPSGVSNRFSGSKSGDTASLTISGLQAEDEADYHCSSYNRKRPPVLFGGGTKLTVL", "notes": "also called CSPG5206 scFv on phage"}, "B6": {"name": "pCANTAB_CSPG5201 phage clone (scFv, V domains shown)", "VH": "not shown", "VL": "B5 VL with N94R, K96L, P98L", "notes": "also called CSPG5201 scFv on phage"}, "B7": {"name": "pCANTAB_CSPG5207 phage clone (scFv, V domains shown)", "VH": "not shown", "VL": "B5 VL with N94T, R95P, K96S, P98A, P99R", "notes": "also called CSPG5207 scFv on phage"}, "B8": {"name": "pCANTAB_CSPG5230 phage clone (scFv, V domains shown)", "VH": "not shown", "VL": "B5 VL with N94H, R95T, K96R, R97P, P98A, P99T", "notes": "also called CSPG5230 scFv on phage"}, "B9": {"name": "pCANTAB_CSPG5214 phage clone (scFv, V domains shown)", "VH": "not shown", "VL": "B5 VL with R95P, K96H, R97H, P98S, P99G", "notes": "also called CSPG5214 scFv on phage"}, "B10": {"name": "pCANTAB_CSPG5234 phage clone (scFv, V domains shown)", "VH": "not shown", "VL": "B5 VL with N94R, R95P, R97A, P98R, P99S", "notes": "also called CSPG5234 scFv on phage"}, "B11": {"name": "CSPG5120 scFv-hG4PE(R409K) (Fc fusion)", "VH": "B2 VH", "VL": "B2 VL", "notes": "also called anti-CSPG5 scFv-Fc antibody"}, "B12": {"name": "CSPG5115 scFv-hG4PE(R409K) (Fc fusion)", "VH": "B3 VH", "VL": "B3 VL", "notes": "as for B11"}}, "note": "Changes are numbered by the printed parent chain. Names may count otherwise."}
{"target": "mouse CSPG5-FLAG_Fc (mouse)", "test": "phage ELISA, immobilised antigen, anti-M13-HRP", "method": "(§1) In the ELISA, human CSPG5-FLAG_Fc and mouse CSPG5-FLAG_Fc were immobilized on MAXISORP (manufactured by NUNC, Inc.), followed by blocking using SuperBlock Blocking Buffer (manufactured by Thermo Fisher Scientific, Inc.). As a negative control, a plate on which Fc was immobilized was also prepared.\n(§2) To each well, each phage clone was added and allowed to react at room temperature for 30 minutes, and thereafter, each well was washed with PBS-T. Subsequently, a solution obtained by diluting an anti-M13 antibody (manufactured by GE Healthcare, Inc.) labeled with horseradish peroxidase with PBS-T comprising 10% Block Ace (manufactured by Dainippon Pharmaceutical Co., Ltd.) was added to each well and incubated at room temperature for 30 minutes. After the microplate was washed 3 times with PBS-T, a 3,3′,5,5′-tetramethylbenzidine (TMB) chromogenic substrate solution (manufactured by DAKO, Inc.) was added thereto, followed by incubation at room temperature. The coloring reaction was stopped by adding a 0.5 mol/L sulfuric acid to each well, and an absorbance at a wavelength of 450 nm (reference wavelength: 570 nm) was measured using a microplate reader. […]"}
{"binder": "B1", "binding result": "binds"}
{"binder": "B2", "binding result": "binds"}
{"binder": "B3", "binding result": "binds"}
{"binder": "B4", "binding result": "binds"}
{"binder": "B5", "binding result": "binds"}
{"binder": "B6", "binding result": "binds"}
{"binder": "B7", "binding result": "binds"}
{"binder": "B8", "binding result": "binds"}
{"binder": "B9", "binding result": "binds"}
{"binder": "B10", "binding result": "binds"}
{"target": "human CSPG5-FLAG_Fc (human)", "test": "phage ELISA, immobilised antigen, anti-M13-HRP", "method": "as §1, §2"}
{"binder": "B1", "binding result": "binds"}
{"binder": "B2", "binding result": "binds"}
{"binder": "B3", "binding result": "binds"}
{"binder": "B4", "binding result": "binds"}
{"binder": "B5", "binding result": "binds"}
{"binder": "B6", "binding result": "binds"}
{"binder": "B7", "binding result": "binds"}
{"binder": "B8", "binding result": "binds"}
{"binder": "B9", "binding result": "binds"}
{"binder": "B10", "binding result": "binds"}
{"target": "T1, mouse CSPG5 (mouse, UniProt Q71M36 31-566)", "T1 construct": "Full-length gene expressed on Expi293F cells; also called mouse CSPG5/Expi293F cells", "T1 sequence": "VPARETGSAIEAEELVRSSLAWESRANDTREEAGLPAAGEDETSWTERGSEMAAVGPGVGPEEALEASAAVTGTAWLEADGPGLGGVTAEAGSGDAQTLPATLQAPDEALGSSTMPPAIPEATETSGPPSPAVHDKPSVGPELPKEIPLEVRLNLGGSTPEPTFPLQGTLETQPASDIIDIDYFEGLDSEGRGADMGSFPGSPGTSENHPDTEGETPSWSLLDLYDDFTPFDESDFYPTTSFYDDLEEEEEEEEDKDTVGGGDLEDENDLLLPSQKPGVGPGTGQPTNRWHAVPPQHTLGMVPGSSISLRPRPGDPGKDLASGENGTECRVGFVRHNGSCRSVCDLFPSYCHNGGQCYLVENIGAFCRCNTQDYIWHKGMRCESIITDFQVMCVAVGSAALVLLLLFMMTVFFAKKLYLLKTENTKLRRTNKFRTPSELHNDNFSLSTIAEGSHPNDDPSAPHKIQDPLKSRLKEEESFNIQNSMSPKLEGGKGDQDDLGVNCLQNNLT", "test": "FACS, 10 µg/mL antibody, mouse CSPG5/Expi293F vs Expi293F", "method": "(§3) Expi293F cells, human CSPG5/Expi293F cells, mouse CSPG5/Expi293F cells, and monkey CSPG5/Expi293F cells were separately suspended in Staining Buffer (SB) of PBS comprising 0.1% NaN₃ and 1% FBS and dispensed in a round-bottom 96-well plate (manufactured by Becton, Dickinson and Company). After centrifugation (2000 rpm, 4° C., 2 minutes), the supernatant was removed, and to the resulting pellet, 10 μg/mL of each antibody obtained in Example 2 was added to suspend the pellet, and the resulting suspension was left to stand for 30 minutes at ice temperature. After further centrifugation (2000 rpm, 4° C., 2 minutes), the supernatant was removed, and the resulting pellet was washed with SB, and thereafter, 1 μg/mL of an RPE fluorescently labeled goat anti-human antibody (manufactured by Southern Biotech, Inc.) was added thereto, and the resultant was incubated for 30 minutes at ice temperature. After washing with SB, the cells were suspended in SB, and the fluorescence intensity of each cell was measured using a flow cytometer FACS CANTO II (manufactured by Becton, Dickinson and Company). Note that as a negative control, 10 μg/mL of the anti-AVM antibody was used.\n(§4) The detection results were analyzed, and a mean fluorescence intensity (MFI) was calculated using a geometric mean. Further, with respect to the MFI when the concentration of each antibody was 10 μg/mL, the ratio of the MFI (mean fluorescence intensity ratio) between the human CSPG5/Expi293F cells and the Expi293F cells (parent cell line) was calculated. Also for the monkey CSPG5/Expi293F cells and the mouse CSPG5/Expi293F cells, the mean fluorescence intensity ratio relative to the Expi293F cells (parent cell line) was calculated by the same procedure, and the results are shown in Table 3."}
{"binder": "B11", "Mean fluorescence intensity ratio": "20.4 ratio to parent cell line"}
{"binder": "B12", "Mean fluorescence intensity ratio": "3.44 ratio to parent cell line"}
{"target": "T2, human CSPG5 (human, UniProt O95196 31-566)", "T2 construct": "Full-length gene expressed on cell membrane (Expi293F, L929); also called human CSPG5/Expi293F cells; human CSPG5/L929#09", "T2 sequence": "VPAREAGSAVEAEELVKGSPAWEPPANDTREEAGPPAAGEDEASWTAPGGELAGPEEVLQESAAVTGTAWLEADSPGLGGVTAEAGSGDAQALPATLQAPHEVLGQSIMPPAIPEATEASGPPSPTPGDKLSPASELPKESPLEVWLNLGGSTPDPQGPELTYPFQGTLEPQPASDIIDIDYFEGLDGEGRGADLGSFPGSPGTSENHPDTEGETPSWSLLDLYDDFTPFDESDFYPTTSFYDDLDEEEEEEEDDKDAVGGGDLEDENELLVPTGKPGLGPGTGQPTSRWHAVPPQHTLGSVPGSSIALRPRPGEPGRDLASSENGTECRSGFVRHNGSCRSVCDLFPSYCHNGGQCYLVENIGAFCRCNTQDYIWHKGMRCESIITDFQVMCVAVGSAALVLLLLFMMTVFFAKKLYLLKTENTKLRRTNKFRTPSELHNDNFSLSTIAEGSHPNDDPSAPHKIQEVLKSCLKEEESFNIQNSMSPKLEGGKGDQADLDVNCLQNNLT", "test": "FACS, 10 µg/mL antibody, human CSPG5/Expi293F vs Expi293F", "method": "as §3, §4"}
{"binder": "B11", "Mean fluorescence intensity ratio": "18.5 ratio to parent cell line"}
{"binder": "B12", "Mean fluorescence intensity ratio": "3.24 ratio to parent cell line"}
{"target": "T3, monkey CSPG5 (monkey (rhesus monkey), UniProt O95196 31-566 (human entry))", "T3 construct": "Full-length gene expressed on Expi293F cells; also called monkey CSPG5/Expi293F cells; rhesus monkey CSPG5", "T3 chain": "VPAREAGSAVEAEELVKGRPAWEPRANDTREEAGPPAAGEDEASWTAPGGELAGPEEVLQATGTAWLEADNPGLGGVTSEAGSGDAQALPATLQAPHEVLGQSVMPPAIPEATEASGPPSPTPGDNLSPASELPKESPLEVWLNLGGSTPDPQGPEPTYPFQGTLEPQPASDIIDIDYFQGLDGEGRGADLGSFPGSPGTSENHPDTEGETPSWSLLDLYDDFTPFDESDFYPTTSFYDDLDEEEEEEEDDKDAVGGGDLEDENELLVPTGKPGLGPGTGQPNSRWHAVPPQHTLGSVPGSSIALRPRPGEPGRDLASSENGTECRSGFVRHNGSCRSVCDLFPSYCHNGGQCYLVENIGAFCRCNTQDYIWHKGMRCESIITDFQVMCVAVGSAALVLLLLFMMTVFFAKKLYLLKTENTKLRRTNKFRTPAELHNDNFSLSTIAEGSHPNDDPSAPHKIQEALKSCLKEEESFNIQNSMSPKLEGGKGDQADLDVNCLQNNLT", "test": "FACS, 10 µg/mL antibody, monkey CSPG5/Expi293F vs Expi293F", "method": "as §3, §4"}
{"binder": "B11", "Mean fluorescence intensity ratio": "8.01 ratio to parent cell line"}
{"binder": "B12", "Mean fluorescence intensity ratio": "3.56 ratio to parent cell line"}
{"target": "mouse CSPG5-GST (mouse)", "test": "SPR Biacore T-100, antibody captured, mouse CSPG5-GST analyte", "method": "The affinity of the anti-CSPG5 antibodies, the CSPG5202 IgG4PE(R409K), and the AVM IgG4PE(R409K) CSPG5202 dscFv produced in Example 2 for human CSPG5 and mouse CSPG5 was measured using Biacore T-100 (GE Healthcare).\nEach of the antibodies was immobilized on a […] sensor chip using a Human antibody Capture kit, and the binding ability was evaluated using human CSPG5-GST and mouse CSPG5-GST produced in Example 4 as analytes. The obtained sensorgram was analyzed with BIA evaluation software, and the dissociation constant (KD value) was calculated.", "units": {"Kd": "nM"}}
{"binder": "B11", "Kd": "≤ 10"}
{"binder": "B12", "Kd": "≤ 10"}
